Non-standard residues stand in square brackets, D forms with d. No end group written: not given here.
What was measured:
[1] = CD spectra of peptide amphiphiles; format: physicochemical; settings: 1.0 mg/mL, with addition of salt (PBS pH 7.4), room temperature
Description: CD measurements were performed with a Jasco Model J-810 spectropolarimeter (Jasco, Great Dunmow, Essex, UK) using a quartz cuvette with 1 mm pathlength (Hellma, Germany). Spectra were recorded (average of 3 scans) from 240 to 190 nm at a scan speed of 50 nm/min. The ellipticity was derived from the formula: [θ]λ=(M/(N−1)×θλ)/(d×c), where θλ represents observed ellipticity (degrees) at wavelength λ, d represents pathlength (cm), c represents the concentration (g/mL), and [θ]λ represents residue ellipticity (deg cm^2 dmol^−1). Thermal scans were measured with Jasco Model J-810 spectropolarimeter equipped with a peltier temperature controller. The solution was allowed to reach equilibrium for 10 min at room temperature prior to testing.

[2] = Stability of peptide hydrogels in PBS
[3] = Gelation by vial tilting method; format: physicochemical; settings: for Concentration to form the gel: in the presence of a salt; for Minimum concentration to form the gel: without the presence of a salt
Description: The peptide powder was dissolved in water or other aqueous solutions at the required concentrations. Alternatively, the required salt may be added after the peptide aqueous solution is prepared. The hydrogel was formed by mixing the peptide aqueous solution and salt (if required). For example, the solution was vortexed and then incubated to form hydrogel. The hydrogel formed may be stored as formed, or may be dried, for example by freeze drying. Alternatively, the hydrogel may be formed as required. The gelation time was determined by the vial tilting method. […] Rheology experiments were performed at room temperature using a control-strain rheometer (ARES G2, TA instruments). The rheometer is equipped with two sensitive force transducers for torque ranging from 0.05 μN·m to 200 mN·m. The peptide powder was dissolved in water at concentrations ranging from 1.0 to 2.0 (w/v) %. The solution was vortexed and then incubated to form hydrogel. The gel was placed onto parallel-plate geometry (8 mm in diameter). The dynamic storage modulus (G′) and loss modulus (G″) were examined as a function of frequency from 1 to 100 rad/s. The measurements were carried out at a strain amplitude (y) to ensure the linearity of viscoelasticity. Flow sweep (viscosity changes as a function of shear rate) was also performed to study shear thinning properties of hydrogels.

[4] = Rheology, G′ and G″ at frequency of 1 Hz; format: physicochemical
Description: The gelation time was determined by the vial tilting method. […] Rheology experiments were performed at room temperature using a control-strain rheometer (ARES G2, TA instruments). The rheometer is equipped with two sensitive force transducers for torque ranging from 0.05 μN·m to 200 mN·m. […] The solution was vortexed and then incubated to form hydrogel. The gel was placed onto parallel-plate geometry (8 mm in diameter). The dynamic storage modulus (G′) and loss modulus (G″) were examined as a function of frequency from 1 to 100 rad/s. The measurements were carried out at a strain amplitude (y) to ensure the linearity of viscoelasticity. Flow sweep (viscosity changes as a function of shear rate) was also performed to study shear thinning properties of hydrogels.

hMSCs = assay: Live/Dead staining of hMSCs on or in peptide hydrogel (confocal); format: cell-based, human
Description: hMSCs were cultured in MSCGM medium (Lonza, U.S.A.) and incubated at 37° C., 5% CO2. The medium was changed every three days. The cells were harvested with PBS containing 0.025 (w/v) % trypsin and 0.01% EDTA, centrifuged and sub-cultured to passage 4 in MSCGM for 2D culture on the surface of hydrogels or 3D hydrogel encapsulation as described below.
The morphology and viability of hMSCs on the surface of hydrogels and inside 3D peptide hydrogel environment was observed by an inverted confocal laser scanning microscope (CLSM) (CLSM, Carl Zeiss, Germany). Live/Dead cell staining assay (Invitrogen) was used. Briefly, cells cultured on the surfaces of hydrogels in chambered cover glass (NUNC, Denmark) were washed with PBS and incubated in 0.5 mL of PBS containing dyes for 10 min, then visualized by CLSM at excitation wavelengths of 488 nm and 532 nm. All the observations were conducted under the same conditions. For the cells grown in 3D hydrogels, the constructs were cut, followed by the addition of staining agent. The gels were transferred to cover glass and then visualized by CLSM using the same method as described for the cells on the hydrogel surface.

rat red blood cells = settings: cited from earlier work
[5] = antimicrobial peptide alone; cited from earlier work
C. neoformans = settings: clinically isolated yeast C. neoformans; cited from earlier work
P. aeruginosa = settings: clinically isolated multidrug-resistant P. aeruginosa; cited from earlier work
A. baumannii = settings: clinically isolated multidrug-resistant A. baumannii; cited from earlier work
VRE = settings: clinically isolated VRE; cited from earlier work
MRSA = settings: clinically isolated MRSA; cited from earlier work
[6] = In vitro cytotoxicity, MTT assay; format: cell-based, human; settings: human
Description: 1000 μL of HDFs or keratinocytes (10^5 cells per mL) were seeded onto the 12-well Transwell plates (Corning). IIK12 (1%) with various contents of antimicrobial peptides were dissolved in water and incubated at 37° C. overnight and 100 μL of gels were then transferred to the inserts of the Transwell plate. 1 mL of fresh medium was added into the inserts. The plates were incubated for 24 h before proceeding to MTT assay. It is noted that cells without any treatment and Mupirocin (GSK) were used as controls. The data were expressed as mean and standard deviation of three replicates and the tests were repeated 3 times.

[7] = keratitis mouse model; cited from earlier work
[8] = 1.5 wt %, gelation temp. 37 °C, DMEM
[9] = 1.5 wt %, gelation temp. 37 °C, H2O
[10] = 1.5 wt %, gelation temp. R.T., H2O
[11] = 2.0 wt %, gelation temp. 37 °C, H2O

IEIEIRIK (IEIEIRIK-NH2) [IIK8]
Molecular ellipticity (θM) at the minimum point [1]: −28.9 deg.cm^2dmol^−1
Stability in PBS ([2]; peptide conc. 1.0 %): Yes
Stability in PBS ([2]; peptide conc. 1.5 %): Yes
Stability in PBS ([2]; peptide conc. 2.0 %): Yes
Concentration to form the gel [3]: 0.6 % w/v
Gel appearance, gelation in DI water at R.T. ([3]; peptide conc. 1.0 %): clear
Gelation in DI water at 37° C. (via tilting) ([3]; peptide conc. 1.0 %): overnight
Gelation in DI water at R.T. (via tilting), time ([3]; peptide conc. 1.0 %): 1 day, days
Gelation in DI water at 37° C. (via tilting), time ([3]; peptide conc. 1.5 %): ≤ 15 min
Gelation in DI water at R.T. (via tilting), time ([3]; peptide conc. 1.5 %): 30 min
Gelation in DI water at 37° C. (via tilting), time ([3]; peptide conc. 1.5 %, listed as IEIEIRIK): 20 min
Gelation in DI water at 37° C. (via tilting), time ([3]; peptide conc. 2.0 %): 20 min
Gelation in DI water at R.T. (via tilting), time ([3]; peptide conc. 2.0 %): 30 min
Minimum concentration to form the gel [3]: 1.0 % w/v
G′ (storage modulus) [4, 8]: 1206 Pa
G″ (loss modulus) [4, 8]: 172 Pa
G′ (storage modulus) [4, 9]: 707 Pa
G″ (loss modulus) [4, 9]: 32 Pa
G′ (storage modulus) [4, 10]: 125 Pa
G″ (loss modulus) [4, 10]: 22 Pa
G′ (storage modulus) [4, 11]: 1139 Pa
G″ (loss modulus) [4, 11]: 90 Pa

IELEIRLK (IELEIRLK-NH2) [ILK8]
Molecular ellipticity (θM) at the minimum point [1]: −21.4 deg.cm^2dmol^−1
Stability in PBS ([2]; peptide conc. 1.0 %): Yes
Stability in PBS ([2]; peptide conc. 1.5 %): Yes
Stability in PBS ([2]; peptide conc. 2.0 %): Yes
Concentration to form the gel [3]: 0.6 % w/v
Gelation in DI water at 37° C. (via tilting) ([3]; peptide conc. 1.0 %): overnight
Gelation in DI water at R.T. (via tilting), time ([3]; peptide conc. 1.0 %): 1 day days
Gelation in DI water at 37° C. (via tilting), time ([3]; peptide conc. 1.5 %): 15 min
Gelation in DI water at R.T. (via tilting), time ([3]; peptide conc. 1.5 %): 30 min
Gelation in DI water at 37° C. (via tilting), time ([3]; peptide conc. 2.0 %): 10 min
Gelation in DI water at R.T. (via tilting), time ([3]; peptide conc. 2.0 %): 20 min
Minimum concentration to form the gel [3]: 1.0 % w/v
G′ (storage modulus) [4, 10]: 332 Pa
G″ (loss modulus) [4, 10]: 40 Pa

IEVEIEVKIRVK (IEVEIEVKIRVK-NH2) [IEV12]
Gelation in DI water at R.T. (via tilting) ([3]; peptide conc. 0.5 %): No
Gelation in DI water at 37° C. (via tilting) ([3]; peptide conc. 1.0, 2.0 %): Gel

IEVEIRVK-NH2 [IVK8, IEVEIRVK]
Viability of encapsulated cells (hMSCs; 1 day after encapsulation): the majority of encapsulated hMSCs remained viable
Viability of cells on the surface of peptide hydrogel (hMSCs; after 24 h attachment): the majority of the cells remained viable

IK8D: D-enantiomer of antimicrobial peptide IRIKIRIK ([dI][dR][dI][dK][dI][dR][dI][dK])
HC10 value (the lowest concentration that induced 10% or more hemolysis) (rat red blood cells): 1750 µg/mL
Peptide concentration at which a hydrogel forms [5]: 8 w/v %
MIC (C. neoformans): 7.8 µg/mL
MIC (P. aeruginosa): 15.6 µg/mL
MIC (A. baumannii): 31.3 µg/mL
MIC (VRE): 3.9 µg/mL
MIC (MRSA): 3.9 µg/mL

IRIKIRIK-NH2 [IK8L, IRIKIRIK]
HC10 value (the lowest concentration that induced 10% or more hemolysis) (rat red blood cells): 2000 µg/mL
viability at 24 h, 1000 µg/mL ([6]; human dermal fibroblasts (HDFs) in 12-well Transwell plates): 22%
viability at 24 h, 125 µg/mL ([6]; human primary keratinocytes in 12-well Transwell plates): > 70%
Toxicity to the eyes [7]: without causing significant toxicity to the eyes

IRVE (IRVE-NH2)
Gelation in DI water at R.T. (via tilting) ([3]; peptide conc. 10 %): No

IRVEIEVK (IRVEIEVK-NH2) [IRK8]
Gel formation ([3]; concentrations up to 2%): no gel formation
Gelation in DI water at R.T. (via tilting) ([3]; peptide conc. 1.0 %): No
Gelation in DI water at R.T. (via tilting) ([3]; peptide conc. 2.0 %): No

IRVEIK (IRVEIK-NH2)
Gelation in DI water at R.T. (via tilting) ([3]; peptide conc. 1.0 %): No
Gelation in DI water at R.T. (via tilting) ([3]; peptide conc. 2.0 %): No

IRVEIKVE (IRVEIKVE-NH2) [IRE8]
Gelation in DI water at R.T. (via tilting) ([3]; peptide conc. 1.0 %): No
Gel appearance, gelation in DI water at R.T. ([3]; peptide conc. 2.0 %): clear
Gelation in DI water at 37° C. (via tilting), time ([3]; peptide conc. 2.0 %): 1400 min
Gelation in DI water at R.T. (via tilting), time ([3]; peptide conc. 2.0 %): 4300 min
Gelation in DI water at R.T. (via tilting), time ([3]; peptide conc. 2.0 %, listed as IRVEIKVE): 3 days,

IRVEIRVEIRVE (IRVEIRVEIRVE-NH2) [IRV12]
Gelation in DI water at R.T. (via tilting) ([3]; peptide conc. 0.5 %): No
Gel appearance, gelation in DI water at 37° C. ([3]; peptide conc. 1.0, 2.0 %): cloudy
Gelation in DI water at 37° C. (via tilting) ([3]; peptide conc. 1.0, 2.0 %): Gel,

IRVKIEVEIRVK (IRVKIEVEIRVK-NH2) [IVK12]
Lowest concentration at which hydrogels self-assembled ([3]; aqueous solution): 0.6 (w/v) %
Gelation in DI water at 37° C. (via tilting) ([3]; peptide conc. 0.6, 1.0 %): Gel

Reference: US20220356210A1, “A SERIES OF INJECTABLE HYDROGELS SELF-ASSEMBLED FROM SHORT PEPTIDES FOR VARIOUS BIOMEDICAL APPLICATIONS” (Agency for Science, Technology and Research, priority 2019, published 2022)
